Reference: the supplement of paper PMC7125110
± gives the standard error. For some assays here: Variants at the floor of the assay were thinned out.

B1: glmS ribozyme (parent)
chain: AUAAAAGCGCCAGAACUACAGAAAUGUAGUUGACGAGGAGGAGGUUUAUCGAAUUUUCGGCGGAUGCCUCCAAA

What was measured:
Settings in all cases: with glucosamine-6-phosphate
glucosamine-6-phosphate [1] = variants of: B1; assay: kcat; higher = faster cleavage; RNA array
Procedure, shortened: (§1)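 Using a hybridised Cy3 probe at 37 °C, barcoded ribozyme variants transcribed in situ by E. coli RNA polymerase on sequenced MiSeq chips were monitored across tiles imaged over ~14 h. The flow contained glucosamine-6-phosphate from 40 μM to 10 mM in HEPES/KCl/Mg(OAc)2 buffer. Signals were normalised to baseline and to non-cleaving reference variants before per-tile medians were fit to one- or two-exponential decays to yield kobs. Weighted Michaelis–Menten fits across concentrations gave kcat and KM.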

glucosamine-6-phosphate [2] = variants of: B1; assay: KM; higher = weaker cofactor use; RNA array
Procedure, shortened: as §1

glucosamine-6-phosphate [3] = variants of: B1; assay: self-cleavage kobs at 640 uM GlcN6P; higher = faster cleavage; RNA array
Procedure, shortened: as §1

glucosamine-6-phosphate [4] = variants of: B1; assay: self-cleavage kobs at 2500 uM GlcN6P; higher = faster cleavage; RNA array
Procedure, shortened: as §1

glucosamine-6-phosphate [5] = variants of: B1; assay: self-cleavage kobs at 10000 uM GlcN6P; higher = faster cleavage; RNA array
Procedure, shortened: as §1

glucosamine-6-phosphate [6] = variants of: B1; assay: self-cleavage kobs at 40 uM GlcN6P; higher = faster cleavage; RNA array
Procedure, shortened: as §1

glucosamine-6-phosphate [7] = variants of: B1; assay: self-cleavage kobs at 160 uM GlcN6P; higher = faster cleavage; RNA array
Procedure, shortened: as §1

| Variant | kcat (glucosamine-6-phosphate [1]) [s⁻¹] | KM (glucosamine-6-phosphate [2]) [µM] | self-cleavage kobs at 640 uM GlcN6P (glucosamine-6-phosphate [3]) [s⁻¹] | self-cleavage kobs at 2500 uM GlcN6P (glucosamine-6-phosphate [4]) [s⁻¹] | self-cleavage kobs at 10000 uM GlcN6P (glucosamine-6-phosphate [5]) [s⁻¹] | self-cleavage kobs at 40 uM GlcN6P (glucosamine-6-phosphate [6]) [s⁻¹] | self-cleavage kobs at 160 uM GlcN6P (glucosamine-6-phosphate [7]) [s⁻¹] |
| --- | --- | --- | --- | --- | --- | --- | --- |
| U31G G37U C68A | 2.76e-05 ± 6.9e-06 | – | – | – | – | – | – |
| G32U C71A | 0.000322 ± 6.6e-05 | 4080 ± 1900 | 3.16e-05 ± 1.1e-05 | 0.000161 ± 2.6e-05 | 0.000222 ± 2.3e-05 | – | – |
| U31C G44U C67G | 0.00162 ± 0.00031 | 2430 ± 830 | 0.00032 ± 7.1e-05 | 0.0011 ± 0.00027 | 0.00124 ± 0.00024 | – | – |
| G32A A33U | 5.7e-05 ± 3e-06 | 4530 ± 700 | – | – | 3.92e-05 ± 6.3e-06 | – | – |
| G32A A33G | 1.05e-05 ± 2.6e-06 | – | – | – | – | < 1e-05 | – |
| C34A C71G | 1.15e-05 ± 3.9e-06 | – | – | – | – | – | < 1e-05 |
| G32C G41U | < 1e-05 | – | – | – | – | < 1e-05 | < 1e-05 |
| C34A A36U | < 1e-05 | – | < 1e-05 | < 1e-05 | < 1e-05 | < 1e-05 | – |
| U31G A64G | 0.0127 ± 0.0021 | 1620 ± 370 | 0.00368 ± 0.00071 | 0.00704 ± 0.0013 | 0.0116 ± 0.0017 | 0.000372 ± 5.2e-05 | 0.000974 ± 0.00016 |
| G32U A39U | 0.000723 ± 0.00022 | 8400 ± 3500 | 5.81e-05 ± 5.6e-06 | 0.000148 ± 1.2e-05 | 0.000411 ± 3.1e-05 | – | 3.38e-05 ± 1e-05 |
| G32C U46G | 1.21e-05 ± 4.8e-07 | 349 ± 150 | – | – | – | – | – |
| A33U G38C | < 1e-05 | – | – | – | < 1e-05 | – | – |
| G32A U54A C67G | 0.000168 ± 2.5e-05 | 216 ± 100 | – | 0.000137 ± 2.7e-05 | 0.00018 ± 3.3e-05 | – | 8.09e-05 ± 1.6e-05 |
| G32A U55A C68A | 3.25e-05 ± 3.5e-06 | – | – | – | – | – | – |
| U31G A39C | 0.00339 ± 0.0008 | 3130 ± 1100 | 0.000584 ± 0.00012 | 0.00195 ± 0.00036 | 0.00236 ± 0.00045 | – | 0.000147 ± 3.4e-05 |
| U31G U45A A52G | 0.000908 ± 0.00012 | 4890 ± 1500 | – | 0.000361 ± 0.00013 | 0.000604 ± 8.7e-05 | – | – |
| G32U U69A | 9.32e-05 ± 6.2e-06 | 142 ± 64 | 8.92e-05 ± 1.9e-05 | 9.1e-05 ± 1.4e-05 | 8.84e-05 ± 1.1e-05 | – | – |
| G32U U65A | 0.000104 ± 1.3e-05 | 5750 ± 1600 | – | – | 6.61e-05 ± 1.3e-05 | – | < 1e-05 |
| G32A C58A | 0.00126 ± 0.00024 | 3330 ± 920 | 0.000201 ± 2.2e-05 | 0.000498 ± 5.6e-05 | 0.00106 ± 0.00016 | – | 7.42e-05 ± 1.4e-05 |

| Variant | kcat (glucosamine-6-phosphate [1]) [s⁻¹] | KM (glucosamine-6-phosphate [2]) [µM] | self-cleavage kobs at 640 uM GlcN6P (glucosamine-6-phosphate [3]) [s⁻¹] | self-cleavage kobs at 2500 uM GlcN6P (glucosamine-6-phosphate [4]) [s⁻¹] | self-cleavage kobs at 10000 uM GlcN6P (glucosamine-6-phosphate [5]) [s⁻¹] | self-cleavage kobs at 40 uM GlcN6P (glucosamine-6-phosphate [6]) [s⁻¹] | self-cleavage kobs at 160 uM GlcN6P (glucosamine-6-phosphate [7]) [s⁻¹] |
| --- | --- | --- | --- | --- | --- | --- | --- |
| A33U U47C | 3.28e-05 ± 1.2e-05 | – | – | – | 3.01e-05 ± 1.1e-05 | < 1e-05 | – |
| G32C C67U | 2.59e-05 ± 7.6e-07 | 885 ± 190 | – | – | 2.39e-05 ± 5.6e-06 | – | – |
| A33C U57A | 2.16e-05 ± 4.2e-06 | – | – | – | – | – | – |
| G32C G37A U55A C67A C68A | 4.68e-05 ± 2.3e-05 | – | 7.47e-05 ± 3.5e-05 | – | – | – | – |
| A33C G41U | < 1e-05 | – | < 1e-05 | – | – | – | – |
| G32A G41A | 0.00039 ± 9.1e-05 | 4740 ± 2000 | 6.12e-05 ± 1.1e-05 | 0.000116 ± 1.6e-05 | 0.000279 ± 3e-05 | – | – |
| A33U C67G C68G | 9.15e-05 ± 1.3e-05 | – | 0.000106 ± 1.7e-05 | 9.54e-05 ± 1.6e-05 | 7.94e-05 ± 2e-05 | 6.63e-05 ± 2e-05 | 4.67e-05 ± 1.9e-05 |
| U31G G59U | 3.05e-05 ± 9.5e-07 | 511 ± 160 | – | – | 2.88e-05 ± 1e-05 | – | – |
| A33G U49C U57A | 2.2e-05 ± 2.7e-06 | – | – | – | – | – | – |
| G32U U56G | 0.00104 ± 0.00031 | 6410 ± 2800 | 8.33e-05 ± 1.2e-05 | 0.000317 ± 5e-05 | 0.000633 ± 6.8e-05 | – | 5.05e-05 ± 1.1e-05 |
| U31G C68U | 0.00134 ± 0.00023 | 2020 ± 590 | 0.000312 ± 4.3e-05 | 0.000606 ± 0.0001 | 0.00126 ± 0.00015 | 3.14e-05 ± 7.7e-06 | 0.000119 ± 2.9e-05 |
| G32U C58G | 0.00149 ± 0.00016 | 8790 ± 1300 | 0.000102 ± 1.7e-05 | 0.000294 ± 7.3e-05 | 0.000802 ± 9.7e-05 | – | 3.01e-05 ± 9.4e-06 |
| G32A A53C | 0.00145 ± 0.00063 | – | 0.000126 ± 1.8e-05 | 0.0004 ± 7.3e-05 | 0.000944 ± 0.00012 | – | 8.36e-05 ± 1.6e-05 |
| A33U U69A | 2.24e-05 ± 3e-06 | – | – | – | – | < 1e-05 | – |
| G32A G59A C68U | 1.04e-05 ± 2.4e-06 | – | – | – | – | – | – |
| U31G C71G | 0.000461 ± 0.0001 | 408 ± 180 | – | 0.000329 ± 7.1e-05 | 0.000555 ± 9.7e-05 | 5.48e-05 ± 1.3e-05 | 0.000111 ± 2.7e-05 |
| U31C G40C | 0.000274 ± 4.9e-05 | – | 0.000125 ± 5e-05 | 0.000177 ± 4e-05 | 0.000287 ± 6.9e-05 | – | – |
| U31C G40A | 0.00072 ± 0.00018 | 1300 ± 550 | 0.000297 ± 4.4e-05 | 0.000647 ± 0.00012 | 0.000532 ± 0.0001 | – | 6.18e-05 ± 1.5e-05 |
